Results from patent US20170226225A1 (Merck Sharp & Dohme, published 2017).
Residue numbers refer to the chain shown, from its start. Names and notes keep the numbering of the source.

B1: αFXI-13716-IgG4 (S228P) Q1E M103L (K-)/kappa (antibody, V domains shown)
VH: EVQLVQSGAEVKKPGASVKVSCKASGYTFTSYSMHWVRQAPGQGLEWMGIINPSGGSTSYAQKFQGRVTMTRDTSTSTVYMELSSLRSEDTAVYYCARGAYLLELYYYYGMDVWGQGTTVTVSS
VL: EIVMTQSPATLSVSPGERATLSCRASQSVSSNLAWYQQKPGQAPRLLIYGASTRATGIPARFSGSGSGTEFTLTISSLQSEDFAVYYCQQFNDWPLTFGGGTKVEIKR
notes: Human IgG4 S228P heavy chain with Q1E and M103L, lacking the C-terminal lysine; kappa light chain
B2: αFXI-13716p-IgG4 (S228P) (K-)/kappa (antibody, V domains shown)
VH: B1 VH with E1Q, L103M
VL: B1 VL
notes: Human IgG4 S228P heavy chain lacking the C-terminal lysine; kappa light chain; also called α13716p-IgG4 (S228P) (K-)/kappa
B3: αFXI-13654p-IgG4 (S228P) (K-)/kappa (antibody, V domains shown)
VH: EVQLVESGGGLVKPGGSLRLSCAASGFTFSSYSMNWVRQAPGKGLEWVSSISSSSSYIYYADSVKGRFTISRDNAKNSLYLQMNSLRAEDTAVYYCARSYYDYDQGYGMDVWGQGTTVTVSS
VL: DIQMTQSPSSVSASVGDRVTITCRASQGISSWLAWYQQKPGKAPKLLIYAASSLQSGVPSRFSGSGSGTDFTLTISSLQPEDFATYYCQQVNSYPITFGGGTKVEIKR
notes: Human IgG4 S228P heavy chain lacking the C-terminal lysine; kappa light chain

Molecular target: T1, human coagulation Factor XI (FXI) zymogen (human, UniProt P03951 19-625)
Assay: cell-based or functional assay

Binder	FXIa Activation Inhibition (EC50, nM); autoactivation of FXI on dextran sulfate, Z-GPR-AFC cleavage [nM]
B1	11
B2	4
B3	10

Molecular target: cynomolgus monkey FXIa (cynomolgus monkey, UniProt A0A2K5VVW4 19-624)
Assay: SPR (ProteOn XPR36), antibody captured by anti-human IgG, FXIa as analyte; mean ± SD, N=3

Binder	Kd [pM]
B1	3.3
B2	3.7
B3	2

Molecular target: human FXIa (human, UniProt P03951 19-625)
Assay: as above

Binder	Kd [pM]
B1	1.1
B2	1.3
B3	9

Molecular target: T2, rhesus monkey FXI zymogen (rhesus monkey, UniProt F6PJ95 19-624)
Assay: cell-based or functional assay

Binder	aPTT in rhesus monkey plasma: concentration that prolongs clotting time by 50% (1.5x) [nM]
B1	17.4
B2	19.4
B3	25

Molecular target: T3, cynomolgus monkey FXI zymogen (cynomolgus monkey, UniProt A0A2K5VVW4 19-624)
Assay: cell-based or functional assay

Binder	aPTT in cynomolgus monkey plasma: concentration that prolongs clotting time by 50% (1.5x) [nM]
B1	21.1
B2	22.5
B3	21.6

Molecular target: T1, human coagulation Factor XI (FXI) …
Assay: cell-based or functional assay
Remark: another data set of the same source

Binder	aPTT in human plasma: concentration that prolongs clotting time by 50% (1.5x) [nM]
B1	20.9
B2	21.6
B3	16.8

Molecular target: T2, rhesus monkey FXI zymogen
Assay: SPR (ProteOn XPR36), antibody captured by anti-human IgG, FXI as analyte; mean ± SD, N=3
Procedure: (§1) 1 M ethanolamine HCl is then injected across all six vertical flow channels to neutralize remaining reactive surface amines. The anti-FXI antibodies are then injected at 25 μL/minutes for 60 seconds, each into a distinct vertical flow channel coated with capture antibody (L2, L3, L4, L5, or L6), at a concentration of 5 μg/mL in 10 mM sodium acetate, pH 5.0, to achieve saturating capture levels of approximately 80 RU; vertical flow channel L1 is injected with 10 mM sodium acetate, pH 5.0 (buffer alone), as a reference control. After capture of anti-FXI antibodies, running buffer (1×HBS-N, 5 mM CaCl₂, 0.005% P20, pH 7.4) is injected across all horizontal flow channels (A1-A6) for 5 minutes and allowed to dissociate for 20 minutes at 25 μL/minutes to remove any non-specifically bound anti-FXI antibodies from the chip surface. To measure on-rate (kₐ) of human FXI to captured anti-FXI antibodies, a 6-point titration of human FXI zymogen (0, 0.25, 0.5, 1.0, 2.0, 4.0 nM diluted in running buffer) is subsequently injected horizontally across all six vertical flow channels for 8 minutes; the bound zymogen is then allowed to dissociate for 60 minutes in running buffer at 25 μL/min to measure off-rate (kd). Binding kinetics and affinity (KD) may be determined using instrument-specific software (Bio-Rad).
(§2) A GLC low-density sensor chip is washed across all vertical and horizontal flow channels with 0.5% sodium dodecyl-sulfate, 50 mM sodium hydroxide, and 100 mM hydrochloric acid for 60 seconds at 30 μL/second flow rate.

Binder	Kd [pM]
B1	2
B2	3.1
B3	26.6

Molecular target: T3, cynomolgus monkey FXI zymogen
Assay: as above
Procedure: as §1, §2

Binder	Kd [pM]
B1	6.9
B2	7.5
B3	12.9

Molecular target: T1, human coagulation Factor XI (FXI) …
Assay: as above
Procedure: as §1, §2

Binder	Kd [pM]
B1	2.5
B2	3.5
B3	26.5
